# Reference: patent US20040171629
# T1: annexin V, P08758
# T1 chain: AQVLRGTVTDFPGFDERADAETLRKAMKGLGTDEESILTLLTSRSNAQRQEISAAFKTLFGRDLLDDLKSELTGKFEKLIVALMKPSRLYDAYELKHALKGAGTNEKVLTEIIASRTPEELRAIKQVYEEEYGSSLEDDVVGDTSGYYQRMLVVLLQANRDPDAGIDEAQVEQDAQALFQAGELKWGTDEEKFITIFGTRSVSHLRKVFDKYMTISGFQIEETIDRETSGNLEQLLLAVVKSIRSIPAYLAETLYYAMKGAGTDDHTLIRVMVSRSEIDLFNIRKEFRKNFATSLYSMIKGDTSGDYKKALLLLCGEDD
# Key:
# [1] = target: FITC-labeled, dephosphorylated casein
# [2] = target: kidney membrane associated proteins
# annexin V, P08758 = target: T1, annexin V, P08758
Protein,"proteolytic activity, fluorescence at 535 nm of Dcasein-FITC [1]","proteolytic activity, SDS-PAGE with Coomassie Blue staining (β-casein)","cleavage in human kidney membrane extract, 2-dimensional gel electrophoresis [2]","cleavage in human kidney cytoplasmic extract, 2-dimensional gel electrophoresis (annexin V, P08758)"
MBP-Omi-(134-458) (protein) AVPSPPPASPRSQYNFIADVVEKTAPAVVYIEILDRHPFLGREVPISNGSGFVVAADGLIVTNAHVVADRRRVRVRLLSGDTYEAVVTAVDPVADIATLRIQTKEPLPTLPLGRSADVRQGEFVVAMGSPFALQNTITSGIVSSAQRPARDLGLPQTNVEYIQTDAAIDFGNSGGPLVNLDGEVIGVNTMKVTAGISFAIPSDRLREFLHRGEKKNSSSGISGSQRRYIGVMMLTLSPSILAELQLREPSFPDVQHGVLIHKVILGSPAHRAGLRPGDVILAIGEQMVQNAEDVYEAVRTQSQLAVQIRRGRETLTLYVTPEVTE,there was a rapid increase in fluorescence for the first 20 min followed by a slower increase for the remaining 10 min of the assay,–,–,–
His-tagged Omi-(134-458) (protein) AVPSPPPASPRSQYNFIADVVEKTAPAVVYIEILDRHPFLGREVPISNGSGFVVAADGLIVTNAHVVADRRRVRVRLLSGDTYEAVVTAVDPVADIATLRIQTKEPLPTLPLGRSADVRQGEFVVAMGSPFALQNTITSGIVSSAQRPARDLGLPQTNVEYIQTDAAIDFGNSGGPLVNLDGEVIGVNTMKVTAGISFAIPSDRLREFLHRGEKKNSSSGISGSQRRYIGVMMLTLSPSILAELQLREPSFPDVQHGVLIHKVILGSPAHRAGLRPGDVILAIGEQMVQNAEDVYEAVRTQSQLAVQIRRGRETLTLYVTPEVTE,–,"had substantial activity against β-casein, and after 30 min total degradation of the substrate occurred",No proteins were cleaved in the membrane bound fractions,two polypeptides (32 kD and 29 kD) in the human kidney cytoplasmic fraction were specifically cleaved by His-Omi
